Laboratory results as given in the supplement of paper PMC9170038.

System: K4 kissing-loop RNA reporter
Test: apparent KD of K4 kissing-loop reporter; higher = weaker reporter binding
Conditions: Eterna round: R107
Procedure: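 RNA-MaP round R107: designed RNA switches with theophylline, tryptophan, arginine or FMN aptamers are transcribed on-chip within common flanks. They are titrated with a labelled K4 kissing-loop RNA reporter in RNA-MaP buffer (100 mM Tris pH 7.5, 80 mM KCl, 4 mM MgCl2), without ligand or with the indicated ligand. Median apparent KD per design.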

[1] = input ligand: theophylline 20 uM
[2] = input ligand: tryptophan 2.4 mM
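Also: bound reporter read as fluorescence of individual clusters on recovered sequencing chips by microscopy, with normalized cluster intensities fitted with a binding model.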

Sequence: CUCGUGGGUUUGAGAGGGCUUGUGGGAAGUGAGGAUAUUUAGGGAGGGAGAAGGUACUAUAGAAUAUAGUGAUGUUAUAUAUGGG [SSFMNA.U]
- apparent KD of K4 kissing-loop reporter (input ligand: FMN 200 uM): 264 nM
- apparent KD of K4 kissing-loop reporter (input ligand: arginine 13.2 mM): 138 nM
- apparent KD of K4 kissing-loop reporter (input ligand: none): 185 nM
- apparent KD of K4 kissing-loop reporter [1]: 111 nM
- apparent KD of K4 kissing-loop reporter [2]: 147 nM

Sequence: CUCUAGGCGCUCGCGUGAGUGAUGUUUACGCGAGGACCGGUACGGCCGCCACUCGCAGACUGGGUGUAAGCGGAGCUGUAUGCCC [theeternabot_exclusion_KL_Trp_A_12]
- apparent KD of K4 kissing-loop reporter (input ligand: FMN 200 uM): 277 nM
- apparent KD of K4 kissing-loop reporter (input ligand: arginine 13.2 mM): 158 nM
- apparent KD of K4 kissing-loop reporter (input ligand: none): 212 nM
- apparent KD of K4 kissing-loop reporter [1]: 174 nM
- apparent KD of K4 kissing-loop reporter [2]: 223 nM

Sequence: CUUGGAAGGACGGCCGCCACUCGACAGUGAUGUUGUCCGAGUGGGUAGCGCAGUGAUGUUGUGUCGAGGACCGGGUCCUAGGAAU [Exclusion Tryptophan B GF 27]
- apparent KD of K4 kissing-loop reporter (input ligand: FMN 200 uM): 185 nM
- apparent KD of K4 kissing-loop reporter (input ligand: arginine 13.2 mM): 149 nM
- apparent KD of K4 kissing-loop reporter (input ligand: none): 170 nM
- apparent KD of K4 kissing-loop reporter [1]: 155 nM
- apparent KD of K4 kissing-loop reporter [2]: 137 nM

Sequence: CUUGGAAGGACGGCCGCCACUCGACGGAGUGAUGUUCCGUGUGGGUAGCGCAGUGAUGUUGUGUCGAGGACCGGGUCCUAGGAAU [Exclusion Tryptophan B GF 28]
- apparent KD of K4 kissing-loop reporter (input ligand: FMN 200 uM): 181 nM
- apparent KD of K4 kissing-loop reporter (input ligand: arginine 13.2 mM): 115 nM
- apparent KD of K4 kissing-loop reporter (input ligand: none): 143 nM
- apparent KD of K4 kissing-loop reporter [1]: 160 nM
- apparent KD of K4 kissing-loop reporter [2]: 77.7 nM

Sequence: GAACAUAGUAAAGGAUAUUCCUGCCUCGCGCGAUUGAUUAGUGAUGUUGACGAUAUCGCUUUGAGGGAAGAAGGUUAACAAGUCA [theeternabot_exclusion_KL_FMN_B_4]
- apparent KD of K4 kissing-loop reporter (input ligand: FMN 200 uM): 761 nM
- apparent KD of K4 kissing-loop reporter (input ligand: arginine 13.2 mM): 659 nM
- apparent KD of K4 kissing-loop reporter (input ligand: none): 678 nM
- apparent KD of K4 kissing-loop reporter [1]: 478 nM
- apparent KD of K4 kissing-loop reporter [2]: 596 nM

Sequence: GAACGGCGGGCGGCCGCCACUGGUAUACGAGUGAUGUUCGGAUAUACAUAAAAUAAGGUAAUUAACAGGACCGGGUCAGAGCCGG [Tryptophan B Same State; Euphoria Solution]
- apparent KD of K4 kissing-loop reporter (input ligand: FMN 200 uM): 138 nM
- apparent KD of K4 kissing-loop reporter (input ligand: arginine 13.2 mM): 130 nM
- apparent KD of K4 kissing-loop reporter (input ligand: none): 165 nM
- apparent KD of K4 kissing-loop reporter [1]: 142 nM
- apparent KD of K4 kissing-loop reporter [2]: 118 nM

Sequence: GAAGGUCAAAGACCUUCGUGCACAUCUGAUACCAGUCGCGAAAGCGACCCUUGGCAGCAGGGCAGUGAUGUUGCCAGUGCACAAA [Omei KL Theo A SS A v4]
- apparent KD of K4 kissing-loop reporter (input ligand: FMN 200 uM): 255 nM
- apparent KD of K4 kissing-loop reporter (input ligand: arginine 13.2 mM): 221 nM
- apparent KD of K4 kissing-loop reporter (input ligand: none): 273 nM
- apparent KD of K4 kissing-loop reporter [1]: 168 nM
- apparent KD of K4 kissing-loop reporter [2]: 253 nM

Sequence: GAAUUAAUGUCUUUAAUAUAAUAAUCAGAUACCAGUGAUUUGUGACACCCUUGGCAGCUGUAUAGAGUGAUGUUCUUAUACAUAA [#12 K4 Theophylline A Exclusion]
- apparent KD of K4 kissing-loop reporter (input ligand: FMN 200 uM): 352 nM
- apparent KD of K4 kissing-loop reporter (input ligand: arginine 13.2 mM): 460 nM
- apparent KD of K4 kissing-loop reporter (input ligand: none): 409 nM
- apparent KD of K4 kissing-loop reporter [1]: 509 nM
- apparent KD of K4 kissing-loop reporter [2]: 279 nM

Sequence: GACACACUUUCAGGUGUCCAGUGACUGGAUACCAGCAUGGAAACAUGCCCUUGGCAGCCAGAACUGGAAGUGAUGUUUCCAGUAA [Theo A Mod Design7 (Brourd)]
- apparent KD of K4 kissing-loop reporter (input ligand: FMN 200 uM): 380 nM
- apparent KD of K4 kissing-loop reporter (input ligand: arginine 13.2 mM): 241 nM
- apparent KD of K4 kissing-loop reporter (input ligand: none): 346 nM
- apparent KD of K4 kissing-loop reporter [1]: 262 nM
- apparent KD of K4 kissing-loop reporter [2]: 330 nM

Sequence: GACCCAGAAGCACACCUAAAGUUGACAGAUACCAGCGUCGUUUGGCGCCCUUGGCAGCUGGUCAGUGAUGUUGAUAGCUUCGACU [theeternabot_sameState_KL_Theo_A_24]
- apparent KD of K4 kissing-loop reporter (input ligand: FMN 200 uM): 197 nM
- apparent KD of K4 kissing-loop reporter (input ligand: arginine 13.2 mM): 69.5 nM
- apparent KD of K4 kissing-loop reporter (input ligand: none): 181 nM
- apparent KD of K4 kissing-loop reporter [1]: 89.5 nM
- apparent KD of K4 kissing-loop reporter [2]: 93.6 nM

Sequence: GAUAAAUUGAUGCGUAGUGAUGCACGGGAAGGAGCGCGUUUUUUCGCAGGUAGGUCGCCCGACUGCGCGUUUCGAGUGAUGUUCG [5.)]
- apparent KD of K4 kissing-loop reporter (input ligand: FMN 200 uM): 192 nM
- apparent KD of K4 kissing-loop reporter (input ligand: arginine 13.2 mM): 198 nM
- apparent KD of K4 kissing-loop reporter (input ligand: none): 193 nM
- apparent KD of K4 kissing-loop reporter [1]: 197 nM
- apparent KD of K4 kissing-loop reporter [2]: 172 nM

Sequence: GAUAUAGUGAUGUUAUAUACUGAUAGACAACGAGGACCGGUACGGCCGCCACUCGAGAGGGUGAAAAUGGUGAUAAAAUAAUGAU [#03 K4 Tryptophan A Exclusion]
- apparent KD of K4 kissing-loop reporter (input ligand: FMN 200 uM): 349 nM
- apparent KD of K4 kissing-loop reporter (input ligand: arginine 13.2 mM): 271 nM
- apparent KD of K4 kissing-loop reporter (input ligand: none): 381 nM
- apparent KD of K4 kissing-loop reporter [1]: 322 nM
- apparent KD of K4 kissing-loop reporter [2]: 274 nM

Sequence: GAUGGGUAUCAAGGAUAUGCCACUAUUGACUCCUAGAUGGUCAACCAUAUAAUGCGAGUGAUGUUCGCAGAAGGUGAUUCUUAGC [theeternabot_exclusion_KL_FMN_B_24]
- apparent KD of K4 kissing-loop reporter (input ligand: FMN 200 uM): 92.3 nM
- apparent KD of K4 kissing-loop reporter (input ligand: arginine 13.2 mM): 92.3 nM
- apparent KD of K4 kissing-loop reporter (input ligand: none): 89.5 nM
- apparent KD of K4 kissing-loop reporter [1]: 89.7 nM
- apparent KD of K4 kissing-loop reporter [2]: 73.2 nM

Sequence: GAUGUAGAGGCGGCCGCCACUAGUGAUGUUAGUGAUGUUUGAUACUGUAUAUAUCGGCGUGUAGAUAGGACCGGGCCUGAUGGAG [dbbdmullin]
- apparent KD of K4 kissing-loop reporter (input ligand: FMN 200 uM): 276 nM
- apparent KD of K4 kissing-loop reporter (input ligand: arginine 13.2 mM): 165 nM
- apparent KD of K4 kissing-loop reporter (input ligand: none): 214 nM
- apparent KD of K4 kissing-loop reporter [1]: 225 nM
- apparent KD of K4 kissing-loop reporter [2]: 201 nM

Sequence: GAUUAAUAAGAGGAUACCAGUACUAAUAAAGUACAUUAAUAGUAGAGUGAUGUUCUAUAGUACCCUUGGCAGCUUAGAGUAAGUU [#09 K4 Theophylline B Exclusion]
- apparent KD of K4 kissing-loop reporter (input ligand: FMN 200 uM): 131 nM
- apparent KD of K4 kissing-loop reporter (input ligand: arginine 13.2 mM): 200 nM
- apparent KD of K4 kissing-loop reporter (input ligand: none): 167 nM
- apparent KD of K4 kissing-loop reporter [1]: 210 nM
- apparent KD of K4 kissing-loop reporter [2]: 103 nM

Sequence: GAUUCAGUGAUGUUGGAAGGCGAGCGGGAUACCAGCGGAGACUCACGCCCUUGGCAGCCCACAUAUCCCAGGUAGAUAAUAGAUC [Same State - Theophylline A (Freestyle 7)]
- apparent KD of K4 kissing-loop reporter (input ligand: FMN 200 uM): 201 nM
- apparent KD of K4 kissing-loop reporter (input ligand: arginine 13.2 mM): 123 nM
- apparent KD of K4 kissing-loop reporter (input ligand: none): 178 nM
- apparent KD of K4 kissing-loop reporter [1]: 160 nM
- apparent KD of K4 kissing-loop reporter [2]: 180 nM

Sequence: GAUUGUGAUGGAAACAUCGCAAUCUCUGAAGGAGCGCGUGAAAACGCAGGUAGGUCGCAGAACGACAAAGACAGUGAUGUUGUCA [Ex Arginine A K4 5]
- apparent KD of K4 kissing-loop reporter (input ligand: FMN 200 uM): 321 nM
- apparent KD of K4 kissing-loop reporter (input ligand: arginine 13.2 mM): 263 nM
- apparent KD of K4 kissing-loop reporter (input ligand: none): 289 nM
- apparent KD of K4 kissing-loop reporter [1]: 298 nM
- apparent KD of K4 kissing-loop reporter [2]: 234 nM
